Tested on: peptide library, one residue held at a place counted from the S/T acceptor
Test: relative phosphorylation of the sub-library (ratio to the mean residue at this position); higher = residue favoured
How it was run: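 Relative sub-library phosphorylation, a ratio to the mean residue at that position, was obtained by phosphorimaging and densitometry of spots on streptavidin membranes. Before capture, purified recombinant kinases were incubated for 90 min under kinase-specific conditions with 50 μM biotinylated degenerate peptide sub-libraries and 50 μM ATP spiked with γ-32P-ATP. Each sub-library fixed one residue at one position around a central Ser/Thr.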

TRPM6, construct: aa1699-end, human, sequence (Q9BX84 1699-2022, looked up): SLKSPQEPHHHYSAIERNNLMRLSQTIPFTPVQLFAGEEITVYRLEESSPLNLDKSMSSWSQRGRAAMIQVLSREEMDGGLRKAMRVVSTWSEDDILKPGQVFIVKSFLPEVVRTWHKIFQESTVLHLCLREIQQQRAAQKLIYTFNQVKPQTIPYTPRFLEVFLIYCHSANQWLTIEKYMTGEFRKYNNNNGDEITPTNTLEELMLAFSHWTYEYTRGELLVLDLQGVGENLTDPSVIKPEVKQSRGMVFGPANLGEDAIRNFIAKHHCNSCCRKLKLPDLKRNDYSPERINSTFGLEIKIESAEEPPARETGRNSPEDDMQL

RPS6KA5, construct: Full length, human (from UniProt O75582)
relative phosphorylation
Conditions | at +1 | at +2 | at +3 | at +4 | at -1 | at -2 | at -3 | at -4 | at -5
A fixed | 0.772 | 0.9 | 0.834 | 0.825 | 0.783 | 0.787 | 0.718 | 0.981 | 1.04
D fixed | 0.723 | 2.19 | 1.3 | 1.63 | 0.877 | 0.316 | 0.294 | 0.639 | 0.65
E fixed | 0.84 | 1.43 | 1.27 | 1.62 | 0.544 | 0.306 | 0.314 | 0.757 | 0.597
F fixed | 1.44 | 0.986 | 1.12 | 0.863 | 0.767 | 0.4 | 0.352 | 0.778 | 0.91
G fixed | 0.633 | 0.826 | 0.988 | 1 | 0.855 | 0.675 | 0.499 | 1.31 | 1.18
H fixed | 1.04 | 1.59 | 1.35 | 1.23 | 1.16 | 1.06 | 1.18 | 1.18 | 1.03
I fixed | 1.48 | 0.676 | 0.738 | 0.713 | 0.435 | 0.272 | 0.286 | 0.694 | 0.779
K fixed | 0.616 | 0.436 | 0.674 | 0.588 | 1.57 | 1.8 | 1.18 | 1.34 | 1.2
L fixed | 1.32 | 0.95 | 1.09 | 0.777 | 1.07 | 0.444 | 0.293 | 0.807 | 1.03
M fixed | 1.49 | 0.781 | 0.981 | 0.788 | 1.04 | 0.445 | 0.39 | 1.07 | 0.962
N fixed | 0.976 | 1.27 | 0.92 | 1.2 | 1.42 | 0.693 | 0.51 | 0.909 | 0.81
P fixed | 0.292 | 0.581 | 0.98 | 1.5 | 1.63 | 0.367 | 0.588 | 1.1 | 0.923
Q fixed | 1.19 | 0.734 | 0.989 | 1.12 | 1.15 | 0.843 | 0.666 | 0.915 | 0.774
R fixed | 0.539 | 0.52 | 0.574 | 0.551 | 1.5 | 7.44 | 8.25 | 2.04 | 2.26
V fixed | 1.21 | 0.81 | 0.714 | 0.721 | 0.466 | 0.318 | 0.282 | 0.663 | 0.775
W fixed | 1.21 | 1.03 | 1.33 | 0.959 | 0.743 | 0.425 | 0.709 | 0.86 | 1.2
Y fixed | 1.25 | 1.28 | 1.16 | 0.912 | 1 | 0.4 | 0.486 | 0.952 | 0.871
pThr fixed | 1.64 | 1.88 | 1.62 | 2.88 | 0.451 | 0.325 | 0.406 | 0.697 | 0.68
pTyr fixed | 1.68 | 1.25 | 1.53 | 1.57 | 0.898 | 0.392 | 0.539 | 0.698 | 0.747

SRPK3, construct: Full length, human (from UniProt Q9UPE1)
relative phosphorylation
Conditions | at +1 | at +2 | at +3 | at +4 | at -1 | at -2 | at -3 | at -4 | at -5
A fixed | 0.905 | 1.14 | 0.591 | 0.865 | 1.08 | 1.46 | 0.594 | 0.904 | 0.946
D fixed | 0.388 | 1.38 | 0.427 | 0.767 | 0.598 | 3.18 | 0.543 | 0.699 | 0.69
E fixed | 0.501 | 1.15 | 0.377 | 0.67 | 0.731 | 1.53 | 0.451 | 0.818 | 0.718
F fixed | 0.56 | 0.736 | 0.505 | 0.848 | 0.727 | 0.782 | 0.389 | 0.825 | 1.1
G fixed | 0.767 | 0.962 | 0.719 | 1.03 | 1.05 | 0.997 | 0.429 | 0.929 | 1.05
H fixed | 0.649 | 1.54 | 0.577 | 0.999 | 1.3 | 0.804 | 0.444 | 0.944 | 1.09
I fixed | 0.877 | 0.777 | 0.413 | 0.739 | 0.696 | 0.471 | 0.351 | 0.865 | 0.92
K fixed | 0.963 | 1.08 | 1.06 | 1.33 | 1.34 | 0.908 | 0.724 | 1.36 | 1.33
L fixed | 1.09 | 0.601 | 0.41 | 0.846 | 0.924 | 0.551 | 0.346 | 0.791 | 0.785
M fixed | 1.01 | 0.796 | 0.467 | 0.899 | 1.02 | 0.666 | 0.403 | 0.859 | 0.906
N fixed | 0.674 | 1.31 | 0.592 | 1.04 | 0.833 | 0.938 | 0.417 | 0.83 | 0.861
P fixed | 3.97 | 0.922 | 1.39 | 1.02 | 1.58 | 0.762 | 0.387 | 0.99 | 0.74
Q fixed | 0.926 | 0.905 | 0.635 | 1.07 | 1.07 | 0.729 | 0.568 | 0.952 | 0.777
R fixed | 1.48 | 1.35 | 7.34 | 2.07 | 1.76 | 1.31 | 9.8 | 2.63 | 2.11
V fixed | 1.13 | 0.909 | 0.456 | 0.745 | 0.898 | 0.547 | 0.34 | 0.852 | 0.897
W fixed | 0.574 | 0.701 | 0.541 | 1.18 | 0.579 | 0.638 | 0.39 | 0.881 | 0.977
Y fixed | 0.537 | 0.734 | 0.496 | 0.876 | 0.818 | 0.723 | 0.429 | 0.867 | 1.1
pThr fixed | 0.601 | 1.02 | 0.572 | 0.874 | 0.69 | 1.01 | 0.644 | 1.13 | 0.863
pTyr fixed | 0.746 | 0.876 | 0.702 | 0.924 | 1.38 | 1.79 | 1.29 | 2.21 | 1.15

TRPM6, construct: aa1699-end, human (from UniProt Q9BX84)
relative phosphorylation
Conditions | at +1 | at +2 | at +3 | at +4 | at -1 | at -2 | at -3 | at -4 | at -5
A fixed | 0.996 | 1.48 | 2.44 | 0.962 | 0.767 | 0.976 | 0.898 | 1.12 | 1.29
D fixed | 0.396 | 0.307 | 0.4 | 0.983 | 0.669 | 0.615 | 0.898 | 1 | 1.12
E fixed | 0.732 | 0.319 | 0.381 | 0.993 | 0.577 | 0.678 | 0.928 | 1.11 | 1.22
F fixed | 0.824 | 1.31 | 0.776 | 0.816 | 0.504 | 1.03 | 0.829 | 0.991 | 1.02
G fixed | 0.509 | 0.788 | 1.09 | 1.33 | 0.421 | 1.36 | 1.06 | 1.35 | 1.43
H fixed | 1.08 | 0.995 | 0.992 | 1.01 | 1.24 | 0.768 | 1.08 | 0.911 | 1.11
I fixed | 1.19 | 0.651 | 0.394 | 0.755 | 0.46 | 0.519 | 0.825 | 0.819 | 0.69
K fixed | 2.27 | 0.855 | 2.27 | 1.27 | 4.26 | 0.678 | 1.18 | 0.887 | 1.12
L fixed | 0.909 | 0.92 | 0.633 | 0.705 | 0.673 | 0.772 | 0.928 | 0.81 | 0.696
M fixed | 0.816 | 1.38 | 0.708 | 0.88 | 0.576 | 1.17 | 0.838 | 0.914 | 0.767
N fixed | 0.685 | 0.66 | 1.04 | 0.945 | 1.08 | 0.731 | 1.34 | 0.931 | 1
P fixed | 0.376 | 2.29 | 0.963 | 1.3 | 0.964 | 1.74 | 1.5 | 1.35 | 0.904
Q fixed | 1.36 | 0.956 | 0.827 | 1.27 | 0.892 | 0.773 | 1.14 | 1.08 | 1.07
R fixed | 1.96 | 0.942 | 1.83 | 1.02 | 2.16 | 0.609 | 0.963 | 0.901 | 0.928
V fixed | 0.903 | 0.562 | 0.539 | 0.805 | 0.51 | 0.609 | 0.737 | 0.789 | 0.747
W fixed | 0.873 | 1.28 | 0.679 | 1.01 | 0.464 | 3.23 | 1.09 | 1.16 | 0.996
Y fixed | 1.12 | 1.3 | 1.04 | 0.948 | 0.78 | 0.746 | 0.774 | 0.875 | 0.884
pThr fixed | 0.646 | 0.552 | 0.592 | 1.04 | 0.7 | 0.837 | 1.1 | 1.2 | 1.21
pTyr fixed | 1.15 | 0.701 | 0.772 | 0.915 | 0.729 | 0.729 | 0.959 | 1.02 | 0.79

Source: the supplement of paper PMC9876800
